Key:
[1] = target: HMGB1 lacking the acidic C-tail (HMGB1ΔC, residues 1-185) (rat)
[2] = target: HMGB1 protein, wild-type, reduced (residues 1-214) (rat)

HMGB1 lacking the acidic C-tail (HMGB1ΔC, residues 1-185) (rat), sequence (P09429 1-185, stated change not applied): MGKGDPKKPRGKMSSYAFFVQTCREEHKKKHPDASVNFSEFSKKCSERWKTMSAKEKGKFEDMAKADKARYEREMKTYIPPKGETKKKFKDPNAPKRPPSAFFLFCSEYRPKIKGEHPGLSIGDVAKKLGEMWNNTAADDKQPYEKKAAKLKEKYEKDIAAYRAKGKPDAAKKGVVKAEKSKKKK

Question: Which results are given for “Recombinant mouse histone H1° (referred to as histone H1) (from UniProt P10922 1-194) (natural protein)”?
Answer: inhibition of HMGB1ΔC-mediated DNA bending (ligase-mediated circularization of a 123-bp DNA; 50 nM reduced HMGB1ΔC, 1-15 nM H1) [1]: 40%; inhibition of HMGB1-mediated DNA bending (ligase-mediated circularization of a 123-bp DNA; 50 nM reduced HMGB1, 1-15 nM H1) [2]: 90%

Source: paper PMC4583294
